Measured values published in patent US20140106352A1 (DUKE UNIVERSITY, published 2014).

Target: T1, nephrin (human, UniProt O60500 23-1241)
T1 construct: whole, on cells; Endogenous protein in fixed podocytes; also called NPHS1
T1 sequence (looked up): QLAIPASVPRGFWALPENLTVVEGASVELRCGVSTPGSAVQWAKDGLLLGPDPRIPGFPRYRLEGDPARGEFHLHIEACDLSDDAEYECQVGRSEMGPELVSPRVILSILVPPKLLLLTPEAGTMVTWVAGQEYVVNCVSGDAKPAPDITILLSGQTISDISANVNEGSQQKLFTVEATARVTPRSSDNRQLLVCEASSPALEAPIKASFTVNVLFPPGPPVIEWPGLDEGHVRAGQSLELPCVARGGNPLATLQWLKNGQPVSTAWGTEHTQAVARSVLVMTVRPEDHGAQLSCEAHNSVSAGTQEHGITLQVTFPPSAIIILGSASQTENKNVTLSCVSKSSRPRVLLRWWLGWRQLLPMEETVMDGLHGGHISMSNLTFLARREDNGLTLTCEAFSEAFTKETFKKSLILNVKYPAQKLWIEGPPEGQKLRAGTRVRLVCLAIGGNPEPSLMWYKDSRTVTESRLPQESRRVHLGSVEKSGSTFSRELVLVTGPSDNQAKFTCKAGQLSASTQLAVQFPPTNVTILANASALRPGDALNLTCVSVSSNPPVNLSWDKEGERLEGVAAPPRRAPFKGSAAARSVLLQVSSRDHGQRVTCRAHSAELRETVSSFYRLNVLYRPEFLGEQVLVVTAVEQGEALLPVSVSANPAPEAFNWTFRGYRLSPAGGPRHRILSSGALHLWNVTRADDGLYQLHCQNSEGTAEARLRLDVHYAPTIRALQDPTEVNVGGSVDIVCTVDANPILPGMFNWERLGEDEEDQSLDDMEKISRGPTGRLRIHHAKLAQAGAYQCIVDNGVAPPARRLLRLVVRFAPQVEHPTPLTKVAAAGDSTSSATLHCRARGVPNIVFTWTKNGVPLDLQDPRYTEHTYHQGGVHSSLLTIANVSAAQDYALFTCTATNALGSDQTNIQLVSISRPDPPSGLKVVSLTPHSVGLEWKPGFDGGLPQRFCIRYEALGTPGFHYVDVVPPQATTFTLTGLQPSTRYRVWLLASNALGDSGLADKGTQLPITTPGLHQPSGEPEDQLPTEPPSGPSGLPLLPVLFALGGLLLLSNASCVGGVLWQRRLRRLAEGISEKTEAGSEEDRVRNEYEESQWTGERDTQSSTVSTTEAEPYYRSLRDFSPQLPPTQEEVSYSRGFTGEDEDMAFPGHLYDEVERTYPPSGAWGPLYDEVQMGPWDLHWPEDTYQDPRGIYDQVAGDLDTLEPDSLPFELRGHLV
Assay: only co-localisation by immunofluorescence in immortalized human podocytes (FIG. 3); no direct binding assay
Procedure: Endogenous anillin protein staining is shown in red. Co-immunolabeling for anti-CD2AP (A) anti-RhoA (B), anti-nephrin (C) anti-INF2 (D) and anti-F-actin are shown in green. Cell nuclei are stained with DAPI (blue). Anillin is strongly expressed in both the nucleus and cytoplasm and co-localizes with CD2AP, RhoA, nephrin, INF2, F-actin and TRPC6, in cultured immortalized human podocytes. IgG served as the control antibody (0).
Immortalized human podocytes were cultured on collagen I-coated coverslips (BD Biosciences) and treated as indicated. Cells were then fixed with 4% paraformaldehyde in PBS (Sigma). Podocytes were then washed twice with ice cold PBS prior to permeabilization with 0.1% Triton X-100 in PBS. Cells were then washed with ice cold PBS twice and blocked with buffer containing 5% goat serum prior to incubation with rabbit polyclonal Anillin antibody (Bethyl Laboratories, Montgomery, Tex.), mouse monoclonal Rho A antibody (Abeam), mouse monoclonal nephrin antibody (Abgent, Inc, San Diego, Calif.), and mouse polyclonal CD2AP antibody (Santa Cruz Biotechnologies, Santa Cruz, Calif.) overnight at 4° C. Cells were then washed with ice cold PBS and secondary Alexa Flora 488 antibody was applied (invitrogen) at a concentration of 1:1,000 for 1 hour at room temperature. […]

B1: anillin (ANLN), wild-type, endogenous in immortalized human podocytes (other)
chain: MDPFTEKLLERTRARRENLQRKMAERPTAAPRSMTHAKRARQPLSEASNQQPLSGGEEKSCTKPSPSKKRCSDNTEVEVSNLENKQPVESTSAKSCSPSPVSPQVQPQAADTISDSVAVPASLLGMRRGLNSRLEATAASSVKTRMQKLAEQRRRWDNDDMTDDIPESSLFSPMPSEEKAASPPRPLLSNASATPVGRRGRLANLAATICSWEDDVNHSFAKQNSVQEQPGTACLSKFSSASGASARINSSSVKQEATFCSQRDGDASLNKALSSSADDASLVNASISSSVKATSPVKSTTSITDAKSCEGQNPELLPKTPISPLKTGVSKPIVKSTLSQTVPSKGELSREICLQSQSKDKSTTPGGTGIKPFLERFGERCQEHSKESPARSTPHRTPIITPNTKAIQERLFKQDTSSSTTHLAQQLKQERQKELACLRGRFDKGNIWSAEKGGNSKSKQLETKQETHCQSTPLKKHQGVSKTQSLPVTEKVTENQIPAKNSSTEPKGFTECEMTKSSPLKITLFLEEDKSLKVTSDPKVEQKIEVIREIEMSVDDDDINSSKVINDLFSDVLEEGELDMEKSQEEMDQALAESSEEQEDALNISSMSLLAPLAQTVGVVSPESLVSTPRLELKDTSRSDESPKPGKFQRTRVPRAESGDSLGSEDRDLLYSIDAYRSQRFKETERPSIKQVIVRKEDVTSKLDEKNNAFPCQVNIKQKMQELNNEINMQQTVIYQASQALNCCVDEEHGKGSLEEAEAERLLLIATGKRTLLIDELNKLKNEGPQRKNKASPQSEFMPSKGSVTLSEIRLPLKADFVCSTVQKPDAANYYYLIILKAGAENMVATPLASTSNSLNGDALTFTTTFTLQDVSNDFEINIEVYSLVQKKDPSGLDKKKKTSKSKAITPKRLLTSITTKSNIHSSVMASPGGLSAVRTSNFALVGSYTLSLSSVGNTKFVLDKVPFLSSLEGHIYLKIKCQVNSSVEERGFLTIFEDVSGFGAWHRRWCVLSGNCISYWTYPDDEKRKNPIGRINLANCTSRQIEPANREFCARRNTFELITVRPQREDDRETLVSQCRDTLCVTKNWLSADTKEERDLWMQKLNQVLVDIRLWQPDACYKPIGKP
notes: Endogenous intracellular protein stained in fixed, permeabilised immortalized human podocytes
- binding result: binds
